Source: PMC3323579

What follows are substances tested against yeast 26S proteasome (RPN11-3XFLAG) (yeast) (UniProt P43588) (assay: ELISA; competition: 8 nM apoMb on immobilised 26S proteasome with peptides 100 µM to 0.01 µM; 100 nM MG132 in all incubations; Ki from a one site binding fit).

percent inhibition of apoMb binding at 100 µM peptide [%] | Substance
34 | myoglobin peptide E7 (69-83)
65 | myoglobin peptide F7 (90-104)

The substances below were run against yeast 26S proteasome (RPN11-3XFLAG) (yeast) (UniProt P43588) (assay: ELISA; 26S proteasome (1 µg/ml, 0.37 nM) captured on plates coated with anti-FLAG antibody; Mb 580 nM to 0.006 nM in TBST with 1 mM ATP, 5 mM MgCl2, 0.1% BSA; bound Mb detected with anti-Mb antibody; one site specific binding fit).

Substance | Kd [nM]
apomyoglobin L104C (G-helix mutant) (natural protein) | 0.6
apomyoglobin T39C (C-helix mutant) (natural protein) | 19.5

More lines, now with the values ahead:

Kd [nM] | Substance
45 | apomyoglobin M131C (H-helix mutant) (natural protein)
3.5 | apomyoglobin (sperm whale myoglobin, heme removed), wild type (from UniProt P02185 1-154) (natural protein)
1.25 | apomyoglobin V10C (A-helix mutant) (natural protein)
0.63 | apomyoglobin L115C (G-helix mutant) (natural protein)
0.57 | apomyoglobin F-helix mutant G80A/P88A/S92A/H97N (natural protein)

Each substance was assayed against yeast 26S proteasome (RPN11-3XFLAG) (yeast) (UniProt P43588) (assay: not given).

stimulation of the ATPase activity of the 26S proteasome (580 nM substrate, 37°C, 15 min) [fold] | Substance
2 | apomyoglobin (sperm whale myoglobin, heme removed), wild type (from UniProt P02185 1-154) (natural protein)
